Experimental data as given in doi:10.1101/2022.01.21.477187.

Molecular target: GMPCPP-stabilised rhodamine microtubules
Assay: single-molecule TIRF motility assay

residency time on the microtubule | landing rate (events μm^−1 min^−1) | processive landing rate (events μm^−1 min^−1) | Substance
6.36 s |  |  | CENP-E483 with a GCN4 leucine zipper domain fused to its C terminus (from UniProt Q02224 1-483)
37.1 s | 0.147 | 0.009 | full-length human CENP-E-mNeonGreen, Q02224 1-2701
